The values that follow are results of earlier work, collected in article PMC12528258.

Like-named read-outs stand apart in the source and are kept apart here.

Data set [1] has as its target H3K9me3 tail tail (Homo sapiens) (UniProt P68431).
Data set [2] has the same target. The source holds these as a separate data set.
Data set [3] has the same target. This is another data set of the same source.
Data set [4] has the same target. This is another data set of the same source.

Sequence of HP1α (P45973 whole entry): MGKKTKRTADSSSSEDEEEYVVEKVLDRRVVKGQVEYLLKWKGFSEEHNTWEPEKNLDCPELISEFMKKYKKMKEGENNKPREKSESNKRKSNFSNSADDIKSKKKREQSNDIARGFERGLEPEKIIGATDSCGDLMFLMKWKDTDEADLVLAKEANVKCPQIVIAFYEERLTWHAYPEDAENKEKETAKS
Sequence of HP1β (P83916 whole entry): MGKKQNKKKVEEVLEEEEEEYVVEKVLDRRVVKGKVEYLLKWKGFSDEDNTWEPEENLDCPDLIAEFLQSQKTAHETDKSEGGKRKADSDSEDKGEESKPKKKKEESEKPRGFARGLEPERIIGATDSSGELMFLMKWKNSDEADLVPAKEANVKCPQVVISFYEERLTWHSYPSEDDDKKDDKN
Sequence of HP1γ (Q13185 2-183): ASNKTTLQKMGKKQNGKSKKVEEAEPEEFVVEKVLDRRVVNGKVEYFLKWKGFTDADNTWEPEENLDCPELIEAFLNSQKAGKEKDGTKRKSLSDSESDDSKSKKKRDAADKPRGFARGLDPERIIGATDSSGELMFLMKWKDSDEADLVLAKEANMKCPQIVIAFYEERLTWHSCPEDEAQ

By Kd is commonly meant the concentration at which binding is half-saturated. For HP1β (from UniProt P83916), the Kd in data set [1] was 5.8 µM.

For the substance HP1γ (from UniProt Q13185), the Kd in data set [2] was 12 µM. Consider HP1α (from UniProt P45973), for which the Kd in data set [3] is 8.3 µM; in data set [4], 35 µM.
